Reference: patent publication CN111690059A (WUHAN INST OF BIOLOGICAL PRODUCTS CO LTD, dated 2020)

Experiments:
[1] = target: T1, SARS-CoV-2刺突蛋白S1的RBD结构域重组蛋白(Sino公司，货号40592-V05H) (SARS-CoV-2, UniProt P0DTC2 319-541); experiment: ELISA, coated RBD 1.0 μg/mL, goat anti-human IgG-HRP detection
T1 construct: domain: RBD结构域; also called RBD结构域的重组蛋白

[2] = target: T1, SARS-CoV-2刺突蛋白S1的RBD结构域重组蛋白(Sino公司，货号405 …); experiment: blocking ELISA, coated RBD, competitor His-tagged ACE2
[3] = target: T2, SARS-CoV-2刺突S1-His重组蛋白(Sino公司，货号:40591-V08H) (SARS-CoV-2, UniProt P0DTC2 16-685); experiment: ELISA, coated S1-His 1.0 μg/mL, goat anti-human IgG-HRP detection
T2 construct: domain: S1; also called S1蛋白; SARS-CoV-2刺突蛋白S1

[4] = target: T3, SARS-CoV-2刺突S1亚基蛋白(Sino公司，货号:40591-V02H) (SARS-CoV-2, UniProt P0DTC2 16-685); experiment: blocking ELISA, coated S1 subunit protein, competitor His-tagged ACE2
T3 construct: domain: S1; also called SARS-CoV-2(2019-nCoV)病毒的刺突蛋白S1

B1: 抗SARS-CoV-2的单克隆抗体1D7 (antibody, V domains shown)
VH: EVQLVESGGGWIQPGGSLRLSCAASGLTVSSNYMSWVRQAPGKGLEWVSVIYSGGSTYYADSVKGRFTISRDNSKNTLYLQMNSLRAEDTAVYYCARDLVVYGMDVWGQGTTVTVSS
VL: AIRMTQSPSSLSASVGDRVTITCRASQSISSYLNWYQQKPGKAPKLLIYAASSLQSGVPSRFSGSGSGTDFTLTISSLQPEDFATYYCQQSYSTLGMYTFGQGTKLEIK
notes: also called 1D7抗体; 人源抗SARS-CoV-2抗体1D7
EC50 [1]: 0.055 nM | IC50 [2]: 4.1 nM | EC50 [3]: 0.092 nM | IC50 [4]: 7.8 nM
